Data as given in patent publication US20060240110A1 (published 2006).

Tests used:
[1] = target: T1, streptavidin (SA chip surface) (UniProt P22629 37-163, limits assumed); assay: SPR, Biacore 3000, streptavidin-coated chip
T1 construct: Commercial chip coating; the construct is not described; also called streptavidin-coated chip

[2] = target: the molecule itself; assay: circular dichroism, concentration dependence of MRE222 in PBS fitted for dimerization (coiled-coil self-association)

T1 sequence (P22629 37-163 limits assumed): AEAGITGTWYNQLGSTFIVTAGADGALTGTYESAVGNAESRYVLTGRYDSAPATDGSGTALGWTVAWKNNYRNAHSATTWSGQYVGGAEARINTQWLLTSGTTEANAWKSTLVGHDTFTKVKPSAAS

B1: PF4ZIP (peptide)
peptide: CGGRMKQLEDKVKKLLKKNYHLENEVARLKKLVG
notes: The entry is the single chain; the Kd is for its self-association into a coiled-coil dimer; also called PF4ZIP peptide
B1 was tested, and the binding result [1] was “no binding” and the Kd [2] was 3.48 µM.
